{"source": "patent US9695228B2", "about": "“EGFR and c-Met fibronectin type III domain binding molecules” (Janssen Biotech, Inc., priority 2012, dated 2017)", "molecules": {"B1": {"name": "ECB18: bispecific linked to albumin binding domain, SEQ ID NO: 118; high EGFR / medium c-Met affinity (protein)", "chain": "MLPAPKNLVVSEVTEDSARLSWDDPWAFYESFLIQYQESEKVGEAIVLTVPGSERSYDLTGLKPGTEYTVSIYGVHNVYKDTNMRGLPLSAIFTTAPAPAPAPAPLPAPKNLVVSRVTEDSARLSWTAPDAAFDSFWIRYDEVVVGGEAIVLTVPGSERSYDLTGLKPGTEYYVNILGVKGGSISVPLSAIFTTAPAPAPAPAPLAEAKVLANRELDKYGVSDYYKNLINNAKTVEGVKALLDEILAALP", "modifications": "Bispecific EGFR/c-Met binding molecule"}, "B2": {"name": "ECB38: bispecific linked to albumin binding domain, SEQ ID NO: 120; high EGFR / high c-Met affinity; test article of Tables 14-16 (protein)", "chain": "B1 chain with D141F, V143F, V144L, V145G, G146S, Y173V, L177M, S183K, V186P", "modifications": "Bispecific EGFR/c-Met binding molecule"}, "B3": {"name": "ECB39: bispecific linked to albumin binding domain, SEQ ID NO: 121; medium EGFR / high c-Met affinity (protein)", "chain": "MLPAPKNLVVSEVTEDSARLSWADPHGFYDSFLIQYQESEKVGEAIVLTVPGSERSYDLTGLKPGTEYTVSIYGVHNVYKDTNMRGLPLSAIFTTAPAPAPAPAPLPAPKNLVVSRVTEDSARLSWTAPDAAFDSFWIRYFEFLGSGEAIVLTVPGSERSYDLTGLKPGTEYVVNIMGVKGGKISPPLSAIFTTAPAPAPAPAPLAEAKVLANRELDKYGVSDYYKNLINNAKTVEGVKALLDEILAALP", "modifications": "Bispecific EGFR/c-Met binding molecule"}, "B4": {"name": "ECB15: bispecific, SEQ ID NO: 57 (145 in Table 19): P54AR4-83v2-(AP)5-P114AR7P94-A3 (protein)", "chain": "MLPAPKNLVVSEVTEDSARLSWDDPWAFYESFLIQYQESEKVGEAIVLTVPGSERSYDLTGLKPGTEYTVSIYGVHNVYKDTNMRGLPLSAIFTTAPAPAPAPAPLPAPKNLVVSRVTEDSARLSWTAPDAAFDSFWIRYFEFLGSGEAIVLTVPGSERSYDLTGLKPGTEYVVNIMGVKGGKISPPLSAIFTT", "modifications": "bispecific EGFR/cMet binding molecule"}, "B5": {"name": "P114AR7P95-F10: c-Met-binding FN3 domain, SEQ ID NO: 47 (protein)", "chain": "LPAPKNLVVSRVTEDSARLSWTAPDAAFDSFWIRYFEFTTAGEAIVLTVPGSERSYDLTGLKPGTEYVVNIMGVKGGSISPPLSAIFTT", "modifications": "c-Met binding FN3 domain"}, "B6": {"name": "P114AR7P95-G7: c-Met-binding FN3 domain, SEQ ID NO: 48 (protein)", "chain": "B5 chain with F38L, T39L, T40S, A41T", "modifications": "c-Met binding FN3 domain"}, "B7": {"name": "P114AR7P95-H8: c-Met-binding FN3 domain, SEQ ID NO: 49 (protein)", "chain": "B5 chain with T39V, T40S, A41K", "modifications": "c-Met binding FN3 domain"}, "B8": {"name": "P114AR5P74-A5: c-Met-binding FN3 domain, SEQ ID NO: 32 (protein)", "chain": "B5 chain with F36D, F38V, T39V, T40V, A41G, V68Y, M72L, P81V", "modifications": "c-Met binding FN3 domain"}, "B9": {"name": "P114AR7P92-F6: c-Met-binding FN3 domain, SEQ ID NO: 35 (protein)", "chain": "B5 chain with T39L, T40G, A41S, M72L, S78G, I79L, P81V", "modifications": "c-Met binding FN3 domain"}}, "key": {"[1]": {"system": "NCI-H292 cells expressing human HGF, xenograft", "test": "Tumor efficacy study with bispecific molecules of variable affinity, H292-HGF xenograft", "assay_type": "in vivo, mice", "conditions": "25 mg/kg three times per week, FIG. 8", "procedure": "One week after implantation, mice were stratified into groups with equivalent tumor volumes (mean tumor volume=77.9+/−1.7 mm^3). Mice were dosed three times per week with the bispecific molecules and tumor volumes were recorded twice weekly."}, "[2]": {"system": "H292-HGF human lung cancer xenograft", "assay_type": "in vivo", "experimental": "The H292-HGF cells were maintained in vitro in RPMI1640 medium supplemented with fetal bovine serum (10% v/v), and L-glutamine (2 mM) at 37° C. in an atmosphere of 5% CO2 in air. The cells were routinely subcultured twice weekly by trypsin-EDTA treatment. The cells growing in an exponential growth phase were harvested and counted for tumor inoculation.\nEach mouse was inoculated subcutaneously at the right flank region with H292-HGF tumor cells (2×10^6) in 0.1 ml of PBS with cultrex (1:1) for tumor development. The treatments were started when the mean tumor size reached 139 mm^3. […] The date of tumor cell inoculation was denoted as day 0.\nBefore commencement of treatment, all animals were weighed and the tumor volumes were measured. Since the tumor volume can affect the effectiveness of any given treatment, mice were assigned into groups using randomized block design based upon their tumor volumes. […] The randomized block design was used to assign experimental animals to groups. First, the experimental animals were divided into homogeneous blocks according to their initial tumor volume. Secondly, within each block, randomization of experimental animals to treatments was conducted.\nAt the time of routine monitoring, the animals were checked for any effects of tumor growth and treatments on normal behavior, such as mobility, visual estimation of food and water consumption, body weight gain/loss (body weights were measured twice weekly), eye/hair matting and any other abnormal effect.\nThe endpoint was whether tumor growth can be delayed or tumor bearing mice can be cured. Tumor size was measured twice weekly in two dimensions using a caliper, and the volume was expressed in mm^3 using the formula: V=0.5 a×b^2 where a and b are the long and short diameters of the tumor, respectively. The tumor size was then used for calculations of both T-C and T/C values. T-C was calculated with T as the time (in days) required for the mean tumor size of the treatment group to reach 1000 mm^3, and C was the time (in days) for the mean tumor size of the control group to reach the same size. The T/C value (in percent) was an indication of antitumor efficacy; T and C were the mean tumor volume of the treated and control groups, respectively, on a given day. Complete tumor regression (CR) is defined as tumors that are reduced to below the limit of palpation (62.5 mm^3). Partial tumor regression (PR) is defined as tumors that are reduced from initial tumor volume. A minimum duration of CR or PR in 3 or more successive tumor measurements is required for a CP or PR to be considered durable.\nAnimals for which the body weight loss exceeded 20%, or for which the mean tumor size of the group exceeds 2000 mm^3 were euthanized. The study was terminated after two weeks of observation after the final dose.\nStatistical analyses of difference in tumor volume among the groups were evaluated using a one-way ANOVA followed by individual comparisons using Games-Howell (equal variance not assumed). All data were analyzed using SPSS 18.0. p<0.05 was considered to be statistically significant."}, "NCI-H1975 cell line": {"system": "NCI-H1975 cell line", "test": "Inhibition of growth of NCI-H1975 cell line (EGFR L858R; T790M)", "assay_type": "cell-based, human", "conditions": "NCI-H1975, mutation T790M", "procedure": "Inhibition of human tumor cell growth was assessed in standard attachment culture as described in Examples 3 or 6, or in low attachment conditions."}, "c-Met-Fc fusion protein": {"biological_target": "T1, c-Met-Fc fusion protein (Homo sapiens, UniProt P08581)", "T1 construct": "recombinant EGFR and/or c-Met extracellular domain was further analyzed by surface Plasmon resonance", "T1 sequence (P08581 25-932 limits assumed)": "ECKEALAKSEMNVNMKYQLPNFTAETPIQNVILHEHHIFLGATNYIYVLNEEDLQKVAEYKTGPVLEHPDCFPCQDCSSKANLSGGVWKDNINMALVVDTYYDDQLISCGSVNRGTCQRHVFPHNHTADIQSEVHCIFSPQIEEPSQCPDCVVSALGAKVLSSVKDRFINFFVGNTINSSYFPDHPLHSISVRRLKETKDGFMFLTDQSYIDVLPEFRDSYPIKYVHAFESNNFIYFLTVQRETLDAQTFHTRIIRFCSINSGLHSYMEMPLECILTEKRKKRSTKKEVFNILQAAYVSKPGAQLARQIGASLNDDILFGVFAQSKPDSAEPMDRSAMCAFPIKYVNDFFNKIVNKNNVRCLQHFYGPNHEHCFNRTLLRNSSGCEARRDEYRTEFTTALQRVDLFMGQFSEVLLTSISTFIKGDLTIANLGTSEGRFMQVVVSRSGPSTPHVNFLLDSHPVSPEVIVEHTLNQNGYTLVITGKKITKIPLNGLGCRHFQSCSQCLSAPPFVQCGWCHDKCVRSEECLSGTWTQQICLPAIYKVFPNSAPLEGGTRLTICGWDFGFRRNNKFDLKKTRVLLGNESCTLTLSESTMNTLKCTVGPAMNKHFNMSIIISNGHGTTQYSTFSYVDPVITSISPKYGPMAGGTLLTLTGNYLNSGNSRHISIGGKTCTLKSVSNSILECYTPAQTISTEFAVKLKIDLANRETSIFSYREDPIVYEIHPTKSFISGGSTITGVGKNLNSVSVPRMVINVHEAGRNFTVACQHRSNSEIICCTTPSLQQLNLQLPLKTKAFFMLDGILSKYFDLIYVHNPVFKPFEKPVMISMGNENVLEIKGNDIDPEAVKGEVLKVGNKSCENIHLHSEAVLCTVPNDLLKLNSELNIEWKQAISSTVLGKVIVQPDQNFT", "test": "c-Met-Fc affinity by surface plasmon resonance (ProteOn)", "assay_type": "binding", "conditions": "serine mutants of A3 in the context of ECB15, SPR"}, "[3]": {"test": "Differential scanning calorimetry in PBS (thermal stability)", "assay_type": "physicochemical", "conditions": "DSC in PBS, c-Met-binding FN3 domains"}}, "note": "Positions count from the first letter of the chain named. Several values for one entry are separate records, joined by “and”; a condition that tells them apart may be missing. Equal entries are not always repeated. Entries after “also recorded” stand apart in the source; their conditions may differ. Where two headings read alike, the source gives them in different places.", "data": [{"molecule": "B1", "values": [{"measurement": "tumor growth inhibition (in words)", "setting": "[1]", "value": "delay in tumor growth"}]}, {"molecule": "B2", "values": [{"measurement": "treatment tolerated", "setting": "[2]; 25 mg/kg, 3 times/week x 3 weeks", "value": "7 out of 10"}, {"measurement": "Tumor volume", "setting": "[2]; day 7 (start of treatment), mean ± SEM, doses as in column head", "value": "137 ± 7", "unit": "mm^3"}, {"measurement": "Tumor volume", "setting": "[2]; day 9, mean ± SEM", "value": "142 ± 7", "unit": "mm^3"}, {"measurement": "Tumor volume", "setting": "[2]; day 13, mean ± SEM", "value": "83 ± 6", "unit": "mm^3"}, {"measurement": "Tumor volume", "setting": "[2]; day 16, mean ± SEM", "value": "44 ± 7", "unit": "mm^3"}, {"measurement": "Tumor volume", "setting": "[2]; day 20, mean ± SEM", "value": "30 ± 6", "unit": "mm^3"}, {"measurement": "Tumor volume", "setting": "[2]; day 23, mean ± SEM", "value": "23 ± 7", "unit": "mm^3"}, {"measurement": "Tumor Size at day 23", "setting": "[2]; day 23 after tumor inoculation, doses given with treatment, listed as bispecific EGFR/c-Met molecule", "value": "23 mm^3 and 23 ± 7 mm^3"}, {"measurement": "Tumor volume", "setting": "[2]; day 27, mean ± SEM", "value": "21 ± 5", "unit": "mm^3"}, {"measurement": "Tumor volume", "setting": "[2]; day 30, mean ± SEM", "value": "23 ± 6", "unit": "mm^3"}, {"measurement": "antitumor activity (in words)", "setting": "[2]; doses as in Table 14, listed as bispecific EGFR/c-Met molecule", "value": "complete tumor regression (CR) in all mice; also recorded: complete response"}, {"measurement": "mice euthanized when BWL>20% during the treatment period", "setting": "[2]; mouse, in vivo", "value": 3, "unit": "mice"}, {"measurement": "tolerability / body weight loss (in words)", "setting": "[2]; mouse, in vivo", "value": "Slight toxicity"}, {"measurement": "tumor growth inhibition (in words)", "setting": "[1]", "value": "showed the most efficacy"}]}, {"molecule": "B3", "values": [{"measurement": "tumor growth inhibition (in words)", "setting": "[1]", "value": "showed the most efficacy"}]}, {"molecule": "B4", "values": [{"measurement": "inhibition of growth (in words)", "setting": "NCI-H1975 cell line", "value": "inhibited growth of NCI-H1975 cell line"}, {"measurement": "ka", "setting": "c-Met-Fc fusion protein", "value": 351000, "unit": "M⁻¹ s⁻¹"}, {"measurement": "kd", "setting": "c-Met-Fc fusion protein", "value": 0.000133, "unit": "s⁻¹"}]}, {"molecule": "B5", "values": [{"measurement": "Thermal Stability (Tm)", "setting": "[3]", "value": 85.2, "unit": "C."}]}, {"molecule": "B6", "values": [{"measurement": "Thermal Stability (Tm)", "setting": "[3]", "value": 87.2, "unit": "C."}]}, {"molecule": "B7", "values": [{"measurement": "Thermal Stability (Tm)", "setting": "[3]", "value": 83, "unit": "C."}]}, {"molecule": "B8", "values": [{"measurement": "Thermal Stability (Tm)", "setting": "[3]", "value": 74.1, "unit": "C."}]}, {"molecule": "B9", "values": [{"measurement": "Thermal Stability (Tm)", "setting": "[3]", "value": 76.8, "unit": "C."}]}]}
